± gives the standard deviation of the averaged measurements.
Tests used:
hTERT-HMEC = assay: percentage of EdU-negative (G0-arrested) nuclei per well, 72 h; higher = more G0 arrest; conditions: reference: sequence is the full UniProt precursor, the tested protein was the secreted form or ectodomain
MCF7 = assay: as above; conditions: reference: sequence is the full UniProt precursor, the tested protein was the secreted form or ectodomain
[1] = protein concentration 0.0225 µM
[2] = protein concentration 0.02025 µM
[3] = protein concentration 0.2025 µM
[4] = protein concentration 0.00725 µM
[5] = protein concentration 0.0725 µM
[6] = protein concentration 0.015525 µM
[7] = protein concentration 0.15525 µM
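Further: secreted proteins added to cultured cells, EdU pulse at the end, nuclei found by Hoechst imaging, EdU status from nuclear versus surrounding ring intensity ratio, PBS as neutral control.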

| Sequence | percentage of EdU-negative (hTERT-HMEC; [1]) | percentage of EdU-negative (hTERT-HMEC; protein concentration 0.225 µM) | percentage of EdU-negative (MCF7; [1]) | percentage of EdU-negative (MCF7; protein concentration 0.225 µM) | also measured |
| --- | --- | --- | --- | --- | --- |
| MRPLAGGLLKVVFVVFASLCAWYSGYLLAELIPDAPLSSAAYSIRSIGERPVLKAPVPKRQKCDHWTPCPSDTYAYRLLSGGGRSKYAKICFEDNLLMGEQLGNVARGINIAIVNYVTGNVTATRCFDMYEGDNSGPMTKFIQSAAPKSLLFMVTYDDGSTRLNNDAKNAIEALGSKEIRNMKFRSSWVFIAAKGLELPSEIQREKINHSDAKNNRYSGWPAEIQIEGCIPKERS | 4.35 ± 0.59% | 6.31 ± 1.2% | 27.2 ± 0.94% | 24.7 ± 0.92% | – |
| MRPLLCALTGLALLRAAGSLAAAEPFSPPRGDSAQSTACDRHMAVQRRLDVMEEMVEKTVDHLGTEVKGLLGLLEELAWNLPPGPFSPAPDLLGDGF [Q5JTB6] | 4.3 ± 0.46% | 5.25 ± 0.17% | 28.1 ± 2.1% | 26 ± 1.2% | – |
| MRPLLLLALLGWLLLAEAKGDAKPEDNLLVLTVATKETEGFRRFKRSAQFFNYKIQALGLGEDWNVEKGTSAGGGQKVRLLKKALEKHADKEDLVILFADSYDVLFASGPRELLKKFRQARSQVVFSAEELIYPDRRLETKYPVVSDGKRFLGSGGFIGYAPNLSKLVAEWEGQDSDSDQLFYTKIFLDPEKREQINITLDHRCRIFQNLDGALDEVVLKFEMGHVRARNLAYDTLPVLIHGNGPTKLQLNYLGNYIPRFWTFETGCTVCDEGLRSLKGIGDEALPTVLVGVFIEQPTPFVSLFFQRLLRLHYPQKHMRLFIHNHEQHHKAQVEEFLAQHGSEYQSVKLVGPEVRMANADARNMGADLCRQDRSCTYYFSVDADVALTEPNSLRLLIQQNKNVIAPLMTRHGRLWSNFWGALSADGYYARSEDYVDIVQGRRVGVWNVPYISNIYLIKGSALRGELQSSDLFHHSKLDPDMAFCANIRQQDVFMFLTNRHTLGHLLSLDSYRTTHLHNDLWEVFSNPEDWKEKYIHQNYTKALAGKLVETPCPDVYWFPIFTEVACDELVEEMEHFGQWSLGNNKDNRIQGGYENVPTIDIHMNQIGFEREWHKFLLEYIAPMTEKLYPGYYTRAQFDLAFVVRYKPDEQPSLMPHHDASTFTINIALNRVGVDYEGGGCRFLRYNCSIRAPRKGWTLMHPGRLTHYHEGLPTTRGTRYIAVSFVDP | – | – | – | – | percentage of EdU-negative (hTERT-HMEC; [2]): 4.5 ± 0.15%; percentage of EdU-negative (hTERT-HMEC; [3]): 7.829 ± 0.054%; percentage of EdU-negative (MCF7; [2]): 27 ± 1.9%; percentage of EdU-negative (MCF7; [3]): 27.54 ± 0.046% |
| MRPLLVLLLLGLAAGSPPLDDNKIPSLCPGHPGLPGTPGHHGSQGLPGRDGRDGRDGAPGAPGEKGEGGRPGLPGPRGDPGPRGEAGPAGPTGPAGECSVPPRSAFSAKRSESRVPPPSDAPLPFDRVLVNEQGHYDAVTGKFTCQVPGVYYFAVHATVYRASLQFDLVKNGESIASFFQFFGGWPKPASLSGGAMVRLEPEDQVWVQVGVGDYIGIYASIKTDSTFSGFLVYSDWHSSPVFA [Q9BXJ0] | 5.51 ± 0.91% | 6.26 ± 0.1% | 23.7 ± 0.35% | 24.3 ± 0.42% | – |
| MRPPACWWLLAPPALLALLTCSLAFGLASEDTKKEVKQSQDLEKSGISRKNDIDLKGIVFVIQSQSNSFHAKRAEQLKKSILKQAADLTQELPSVLLLHQLAKQEGAWTILPLLPHFSVTYSRNSSWIFFCEEETRIQIPKLLETLRRYDPSKEWFLGKALHDEEATIIHHYAFSENPTVFKYPDFAAGWALSIPLVNKLTKRLKSESLKSDFTIDLKHEIALYIWDKGGGPPLTPVPEFCTNDVDFYCATTFHSFLPLCRKPVKKKDIFVAVKTCKKFHGDRIPIVKQTWESQASLIEYYSDYTENSIPTVDLGIPNTDRGHCGKTFAILERFLNRSQDKTAWLVIVDDDTLISISRLQHLLSCYDSGEPVFLGERYGYGLGTGGYSYITGGGGMVFSREAVRRLLASKCRCYSNDAPDDMVLGMCFSGLGIPVTHSPLFHQARPVDYPKDYLSHQVPISFHKHWNIDPVKVYFTWLAPSDEDKARQETQKGFREEL [Q6Y288] | 4.96 ± 0.058% | 9.95 ± 0.45% | 23.9 ± 0.6% | 28.2 ± 2.5% | – |
| MRPPGFRNFLLLASSLLFAGLSAVPQSFSPSLRSWPGAACRLSRAESERRCRAPGQPPGAALCHGRGRCDCGVCICHVTEPGMFFGPLCECHEWVCETYDGSTCAGHGKCDCGKCKCDQGWYGDACQYPTNCDLTKKKSNQMCKNSQDIICSNAGTCHCGRCKCDNSDGSGLVYGKFCECDDRECIDDETEEICGGHGKCYCGNCYCKAGWHGDKCEFQCDITPWESKRRCTSPDGKICSNRGTCVCGECTCHDVDPTGDWGDIHGDTCECDERDCRAVYDRYSDDFCSGHGQCNCGRCDCKAGWYGKKCEHPQSCTLSAEESIRKCQGSSDLPCSGRGKCECGKCTCYPPGDRRVYGKTCECDDRRCEDLDGVVCGGHGTCSCGRCVCERGWFGKLCQHPRKCNMTEEQSKNLCESADGILCSGKGSCHCGKCICSAEEWYISGEFCDCDDRDCDKHDGLICTGNGICSCGNCECWDGWNGNACEIWLGSEYP | – | – | – | – | percentage of EdU-negative (hTERT-HMEC; [4]): 4.34 ± 0.65%; percentage of EdU-negative (hTERT-HMEC; [5]): 6.33 ± 0.52%; percentage of EdU-negative (MCF7; [4]): 26.1 ± 1.1%; percentage of EdU-negative (MCF7; [5]): 24.7 ± 1.8% |
| MRPPQCLLHTPSLASPLLLLLLWLLGGGVGAEGREDAELLVTVRGGRLRGIRLKTPGGPVSAFLGIPFAEPPMGPRRFLPPEPKQPWSGVVDATTFQSVCYQYVDTLYPGFEGTEMWNPNRELSEDCLYLNVWTPYPRPTSPTPVLVWIYGGGFYSGASSLDVYDGRFLVQAERTVLVSMNYRVGAFGFLALPGSREAPGNVGLLDQRLALQWVQENVAAFGGDPTSVTLFGESAGAASVGMHLLSPPSRGLFHRAVLQSGAPNGPWATVGMGEARRRATQLAHLVGCPPGGTGGNDTELVACLRTRPAQVLVNHEWHVLPQESVFRFSFVPVVDGDFLSDTPEALINAGDFHGLQVLVGVVKDEGSYFLVYGAPGFSKDNESLISRAEFLAGVRVGVPQVSDLAAEAVVLHYTDWLHPEDPARLREALSDVVGDHNVVCPVAQLAGRLAAQGARVYAYVFEHRASTLSWPLWMGVPHGYEIEFIFGIPLDPSRNYTAEEKIFAQRLMRYWANFARTGDPNEPRDPKAPQWPPYTAGAQQYVSLDLRPLEVRRGLRAQACAFWNRFLPKLLSATDTLDEAERQWKAEFHRWSSYMVHWKNQFDHYSKQDRCSDL | – | – | – | – | percentage of EdU-negative (hTERT-HMEC; [4]): 4.96 ± 0.24%; percentage of EdU-negative (hTERT-HMEC; [5]): 8.871 ± 0.06%; percentage of EdU-negative (MCF7; [4]): 25.5 ± 3.2%; percentage of EdU-negative (MCF7; [5]): 27.8 ± 2.5% |
| MRPQELPRLAFPLLLLLLLLLPPPPCPAHSATRFDPTWESLDARQLPAWFDQAKFGIFIHWGVFSVPSFGSEWFWWYWQKEKIPKYVEFMKDNYPPSFKYEDFGPLFTAKFFNANQWADIFQASGAKYIVLTSKHHEGFTLWGSEYSWNWNAIDEGPKRDIVKELEVAIRNRTDLRFGLYYSLFEWFHPLFLEDESSSFHKRQFPVSKTLPELYELVNNYQPEVLWSDGDGGAPDQYWNSTGFLAWLYNESPVRGTVVTNDRWGAGSICKHGGFYTCSDRYNPGHLLPHKWENCMTIDKLSWGYRREAGISDYLTIEELVKQLVETVSCGGNLLMNIGPTLDGTISVVFEERLRQMGSWLKVNGEAIYETHTWRSQNDTVTPDVWYTSKPKEKLVYAIFLKWPTSGQLFLGHPKAILGATEVKLLGHGQPLNWISLEQNGIMVELPQLTIHQMPCKWGWALALTNVI [Q9BTY2] | – | – | – | – | percentage of EdU-negative (hTERT-HMEC; [6]): 4.67 ± 0.2%; percentage of EdU-negative (hTERT-HMEC; [7]): 5.55 ± 0.98%; percentage of EdU-negative (MCF7; [6]): 22.7 ± 0.71%; percentage of EdU-negative (MCF7; [7]): 27.2 ± 2.1% |

Reference: the supplement of paper PMC11316812
